From article PMC3438949
Blank lines part the entries; values can stand above or below the substance they belong to.

Target: tapasin-ERp57 heterodimer, endogenous (human (endogenous in human cell lines)) (UniProt O15533)
Assay: co-IP

Sequence of UniProt O15533 (O15533 21-448, chain 1 of 2): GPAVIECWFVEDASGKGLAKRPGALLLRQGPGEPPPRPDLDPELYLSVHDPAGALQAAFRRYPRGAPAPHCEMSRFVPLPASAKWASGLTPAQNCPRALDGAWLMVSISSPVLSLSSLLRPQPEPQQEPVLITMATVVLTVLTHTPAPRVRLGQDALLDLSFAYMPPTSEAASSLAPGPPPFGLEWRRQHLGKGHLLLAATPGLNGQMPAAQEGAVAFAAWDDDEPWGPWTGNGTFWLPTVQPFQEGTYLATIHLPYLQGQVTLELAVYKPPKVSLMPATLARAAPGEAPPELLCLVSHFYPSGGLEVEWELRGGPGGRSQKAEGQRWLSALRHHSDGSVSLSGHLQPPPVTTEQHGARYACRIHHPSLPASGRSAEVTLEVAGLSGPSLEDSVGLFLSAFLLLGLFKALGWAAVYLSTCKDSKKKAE
Sequence of UniProt O15533 (P30101 25-505, chain 2 of 2, further chain): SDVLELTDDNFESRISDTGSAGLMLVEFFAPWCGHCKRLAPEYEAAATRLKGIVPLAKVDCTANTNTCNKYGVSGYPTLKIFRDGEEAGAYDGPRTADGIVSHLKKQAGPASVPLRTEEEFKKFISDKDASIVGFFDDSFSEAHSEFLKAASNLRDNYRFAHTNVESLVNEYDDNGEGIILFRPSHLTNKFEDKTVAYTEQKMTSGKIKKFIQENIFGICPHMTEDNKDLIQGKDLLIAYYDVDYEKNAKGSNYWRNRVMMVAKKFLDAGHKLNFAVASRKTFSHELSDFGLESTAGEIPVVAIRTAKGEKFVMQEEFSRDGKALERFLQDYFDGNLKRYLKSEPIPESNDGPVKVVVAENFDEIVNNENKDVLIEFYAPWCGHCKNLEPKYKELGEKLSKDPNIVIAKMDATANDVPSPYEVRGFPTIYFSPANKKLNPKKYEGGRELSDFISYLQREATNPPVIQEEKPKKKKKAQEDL

percent of HLA-A2-CFP precipitated by PaSta1 alone (HeLaM.A2-CFP cells): 20%
Substance: CFP-tagged HLA-A2 (from UniProt P61769 21-119) (complex)

percent of PLC-associated HLA-C4 precipitated by PaSta1 alone (C1R.A2-His cells): 60%
Substance: HLA-C4, endogenous in C1R cells (from UniProt P61769 21-119) (complex)

percent of endogenous MHC I precipitated by PaSta1 alone (HeLaM.A2-CFP cells): 60%
Substance: endogenous MHC I of HeLaM cells (HLA-A6802, -B1503 and -C1203) (from UniProt P61769 21-119) (complex)
